Target: CD3 on Jurkat cells (Jurkat靶标细胞) (UniProt P07766)
Test: flow cytometry, culture supernatant on Jurkat cells (negative control; TG1 background 132.03)

Sequence of UniProt P07766 (P07766 23-207): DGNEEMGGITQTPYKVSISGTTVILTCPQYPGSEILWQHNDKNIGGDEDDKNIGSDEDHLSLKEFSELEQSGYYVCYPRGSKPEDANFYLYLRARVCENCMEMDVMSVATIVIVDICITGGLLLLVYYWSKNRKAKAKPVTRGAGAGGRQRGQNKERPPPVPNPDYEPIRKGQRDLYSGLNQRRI

结合MFI: 115 MFI
Substance: NC-sdAb(相同形式的非相关性sdAb) (VHH)

Reference: CN106117361A
